Results from patent publication US10253076B2, “Peptides and combination of peptides for use in immunotherapy against ovarian cancer and other cancers” (immatics biotechnologies GmbH, priority 2015, dated 2019).

Target: HLA-A*02:01 (Homo sapiens, UniProt P04439, D140Y/D185E/D98H/E176V/E277Q/G131W/G231S/I119V/I121R/I166T/I218V/L300P/L318F/N151K/N90K/P208A/P217A/Q86G/Q94H/R138H/R169H/T345S)
Experiment: MHC binding assay (UV-ligand exchange, beta2m ELISA, peptide exchange yield)
Settings: binding of HLA-class I restricted peptides to HLA-A*02:01, ranged by peptide exchange yield (UV-ligand exchange, β2m ELISA)
In short: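 Peptide–HLA-A*02:01 complexes made by UV-mediated exchange of a photocleavable peptide with the test peptide. Exchange products diluted 100-fold on streptavidin-coated plates, 1 h at 37°C, then HRP anti-β2m 1 h at 37°C; TMB read at 450 nm to give exchange yield.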

Substance | Peptide exchange
442 (GLLGGGGVLGV; listed as Homo sapiens) [compound 442] | ″+++″ (≥50% = +++)
444 (GLLRDEALAEV; listed as Homo sapiens) [compound 444] | ″+++″ (≥50% = +++)
446 (QLIPALAKV; listed as Homo sapiens) [compound 446] | ″+++″ (≥50% = +++)
447 (QLVPALAKV; listed as Homo sapiens) [compound 447] | ″++″ (≥20% = ++)
448 (NLLETKLQL; listed as Homo sapiens) [compound 448] | ″+++″ (≥50% = +++)
449 (KLAEGLDIQL; listed as Homo sapiens) [compound 449] | ″+++″ (≥50% = +++)
450 (FMIDASVHPTL; listed as Homo sapiens) [compound 450] | ″+++″ (≥50% = +++)
451 (LLLLDTVTMQV; listed as Homo sapiens) [compound 451] | ″++″ (≥20% = ++)
452 (ILLEHGADPNL; listed as Homo sapiens) [compound 452] | ″+++″ (≥50% = +++)
453 (KLLEATSAV; listed as Homo sapiens) [compound 453] | ″++″ (≥20% = ++)
454 (KLPPPPPQA; listed as Homo sapiens) [compound 454] | ″+++″ (≥50% = +++)
455 (SLLKEPQKVQL; listed as Homo sapiens) [compound 455] | ″++″ (≥20% = ++)
456 (LLIGHLERV; listed as Homo sapiens) [compound 456] | ″+++″ (≥50% = +++)
457 (SLLPGNLVEKV; listed as Homo sapiens) [compound 457] | ″+++″ (≥50% = +++)
458 (SLIDKLYNI; listed as Homo sapiens) [compound 458] | ″++″ (≥20% = ++)
459 (ALITEVVRL; listed as Homo sapiens) [compound 459] | ″++″ (≥20% = ++)
461 (VMFRTPLASV; listed as Homo sapiens) [compound 461] | ″++″ (≥20% = ++)
462 (KLAKQPETV; listed as Homo sapiens) [compound 462] | ″+++″ (≥50% = +++)
463 (SLVESHLSDQLTL; listed as Homo sapiens) [compound 463] | ″+++″ (≥50% = +++)
464 (ALNDCIYSV; listed as Homo sapiens) [compound 464] | ″+++″ (≥50% = +++)
465 (QLCDLNAEL; listed as Homo sapiens) [compound 465] | ″+++″ (≥50% = +++)
466 (VLIANLEKL; listed as Homo sapiens) [compound 466] | ″++++″ (≥75% = ++++)
467 (FLAKDFNFL; listed as Homo sapiens) [compound 467] | ″+++″ (≥50% = +++)
468 (YLRSVGDGETV; listed as Homo sapiens) [compound 468] | ″+++″ (≥50% = +++)
469 (YLASDEITTV; listed as Homo sapiens) [compound 469] | ″+++″ (≥50% = +++)
471 (YLYNNMIAKI; listed as Homo sapiens) [compound 471] | ″+++″ (≥50% = +++)

Substance | Peptide exchange
472 (KLLEVSDDPQV; listed as Homo sapiens) [compound 472] | ″+++″ (≥50% = +++)
473 (AMATESILHFA; listed as Homo sapiens) [compound 473] | ″+++″ (≥50% = +++)
474 (YLDPALELGPRNV; listed as Homo sapiens) [compound 474] | ″+++″ (≥50% = +++)
475 (LLLNEEALAQI; listed as Homo sapiens) [compound 475] | ″+++″ (≥50% = +++)
476 (ALMERTGYSMV; listed as Homo sapiens) [compound 476] | ″+++″ (≥50% = +++)
477 (ALLPASGQIAL; listed as Homo sapiens) [compound 477] | ″+++″ (≥50% = +++)
478 (YLLHEKLNL; listed as Homo sapiens) [compound 478] | ″+++″ (≥50% = +++)
479 (SLFGNSGILENV; listed as Homo sapiens) [compound 479] | ″+++″ (≥50% = +++)
480 (ALLEDSCHYL; listed as Homo sapiens) [compound 480] | ″+++″ (≥50% = +++)
481 (GLIEDYEALL; listed as Homo sapiens) [compound 481] | ″+++″ (≥50% = +++)
484 (SLIEKVTQL; listed as Homo sapiens) [compound 484] | ″+++″ (≥50% = +++)
485 (NVPDSFNEV; listed as Homo sapiens) [compound 485] | ″+++″ (≥50% = +++)
486 (AVMESIQGV; listed as Homo sapiens) [compound 486] | ″+++″ (≥50% = +++)
487 (LLINSVFHV; listed as Homo sapiens) [compound 487] | ″+++″ (≥50% = +++)
488 (FLAEDPKVTL; listed as Homo sapiens) [compound 488] | ″+++″ (≥50% = +++)
490 (FLLQHVQEL; listed as Homo sapiens) [compound 490] | ″+++″ (≥50% = +++)
491 (GLNDRSDAV; listed as Homo sapiens) [compound 491] | ″++″ (≥20% = ++)
492 (SLFDGFADGLGV; listed as Homo sapiens) [compound 492] | ″+++″ (≥50% = +++)
493 (GLLGEKTQDLIGV; listed as Homo sapiens) [compound 493] | ″+++″ (≥50% = +++)
494 (ALQPEPIKV; listed as Homo sapiens) [compound 494] | ″++″ (≥20% = ++)
495 (FIFSEKPVFV; listed as Homo sapiens) [compound 495] | ″+++″ (≥50% = +++)
496 (FLVEKQPPQV; listed as Homo sapiens) [compound 496] | ″+++″ (≥50% = +++)
497 (GLLEKLTAI; listed as Homo sapiens) [compound 497] | ″+++″ (≥50% = +++)
498 (KLWTGGLDNTV; listed as Homo sapiens) [compound 498] | ″+++″ (≥50% = +++)
500 (SLMEDQVLQL; listed as Homo sapiens) [compound 500] | ″+++″ (≥50% = +++)
501 (LLDPNVKSIFV; listed as Homo sapiens) [compound 501] | ″+++″ (≥50% = +++)

Substance | Peptide exchange
502 (RLLAQVPGL; listed as Homo sapiens) [compound 502] | ″+++″ (≥50% = +++)
503 (SLNHFTHSV; listed as Homo sapiens) [compound 503] | ″+++″ (≥50% = +++)
504 (GLSDGNPSL; listed as Homo sapiens) [compound 504] | ″++″ (≥20% = ++)
505 (SLAPGDVVRQV; listed as Homo sapiens) [compound 505] | ″++″ (≥20% = ++)
506 (KLLGKVETA; listed as Homo sapiens) [compound 506] | ″+++″ (≥50% = +++)
507 (KLIDDQDISISL; listed as Homo sapiens) [compound 507] | ″+++″ (≥50% = +++)
508 (ILAQEQLVVGV; listed as Homo sapiens) [compound 508] | ″+++″ (≥50% = +++)
509 (FLFDTKPLIV; listed as Homo sapiens) [compound 509] | ″+++″ (≥50% = +++)
510 (KLYSVVSQL; listed as Homo sapiens) [compound 510] | ″++″ (≥20% = ++)
512 (SLSEIVPCL; listed as Homo sapiens) [compound 512] | ″+++″ (≥50% = +++)
513 (SLWPSPEQL; listed as Homo sapiens) [compound 513] | ″++″ (≥20% = ++)
514 (ILVDWLVQV; listed as Homo sapiens) [compound 514] | ″+++″ (≥50% = +++)
515 (LLQELVLFL; listed as Homo sapiens) [compound 515] | ″+++″ (≥50% = +++)
516 (AVGPASILKEV; listed as Homo sapiens) [compound 516] | ″++″ (≥20% = ++)
517 (LLMPIPEGLTL; listed as Homo sapiens) [compound 517] | ″+++″ (≥50% = +++)
518 (KLNAEVACV; listed as Homo sapiens) [compound 518] | ″+++″ (≥50% = +++)
519 (GLLHLTLLL; listed as Homo sapiens) [compound 519] | ″+++″ (≥50% = +++)
520 (LAVHPSGVAL; listed as Homo sapiens) [compound 520] | ″+″ (≥10% = +)
521 (MLLTKLPTI; listed as Homo sapiens) [compound 521] | ″+++″ (≥50% = +++)
522 (TLWYRSPEV; listed as Homo sapiens) [compound 522] | ″++″ (≥20% = ++)
523 (YQIPRTFTL; listed as Homo sapiens) [compound 523] | ″++″ (≥20% = ++)
524 (ALIENLTHQI; listed as Homo sapiens) [compound 524] | ″++″ (≥20% = ++)
525 (VLLEAGEGLVTI; listed as Homo sapiens) [compound 525] | ″+++″ (≥50% = +++)
526 (RLAEVGQYEQV; listed as Homo sapiens) [compound 526] | ″++″ (≥20% = ++)
527 (FLLEPGNLEV; listed as Homo sapiens) [compound 527] | ″++++″ (≥75% = ++++)
